The record followed here is patent publication EP4740958A1 (QILU PHARMACEUTICAL CO., LTD., dated 2026).

This experiment deals with T1, recombinant human CCR8 protein (human, UniProt P51685 1-355, limits assumed).
T1 construct: Recombinant protein fixed on a CM5 chip by amino coupling (about 15 RU); also called human CCR8 recombinant protein
The experiment is described as follows: SPR (Biacore 8K), CCR8 fixed on CM5 chip by amino coupling, antibody 1 nM-31.25 pM as analyte, 1:1 model. (SPR reads the build-up and loss of mass on a sensor chip optically.)

T1 sequence (P51685 whole entry): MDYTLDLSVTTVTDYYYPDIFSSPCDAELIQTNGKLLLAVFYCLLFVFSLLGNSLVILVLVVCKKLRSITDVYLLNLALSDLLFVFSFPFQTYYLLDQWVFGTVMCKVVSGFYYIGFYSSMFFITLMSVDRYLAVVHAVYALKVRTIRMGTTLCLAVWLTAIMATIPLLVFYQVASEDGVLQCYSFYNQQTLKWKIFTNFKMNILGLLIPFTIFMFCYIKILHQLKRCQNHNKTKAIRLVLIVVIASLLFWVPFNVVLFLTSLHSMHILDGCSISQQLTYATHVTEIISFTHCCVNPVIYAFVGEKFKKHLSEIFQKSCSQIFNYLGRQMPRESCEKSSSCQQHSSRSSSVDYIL

B1: anti-human CCR8 monoclonal antibody J06 (antibody, human IgG1, kappa, V domains shown)
VH: EVQLVESGGGVVQPGRSLRLSCAASGFPFEPFAMNWVRQAPGKGLEWVARIRSKANNYATYYADSVKDRFAISRDNSKRTLYLLMHSLRFEDTAVYYCVRGRENNYGYAMDYWGQGTTVTVSS
VL: DVVMTQSPPSLPVTLGQSASISCRSSQSLLHSNGITYLYWFLQRPGQSPRLLIYRMSNLASGVPDRFSGSGSGTDFTLRISRVEAEDVGVYYCMQHLTYPFTFGIGTKVEIKR
notes: also called J06 preparation; anti-CCR8 Mab 1187
By Kd is commonly meant the equilibrium constant for the complex coming apart. Usually koff stands for the rate constant with which the complex falls apart. In general, kon refers to the second-order rate constant of association. For B1, the Kd is 7.77 pM, the koff is 0.000131 s⁻¹ and the kon turned out to be 1.69e+07 M⁻¹ s⁻¹.
